From article PMC5430663, “Distant Phe345 mutation compromises the stability and activity of Mycobacterium tuberculosis isocitrate lyase by modulating its structural flexibility” (Scientific Reports, 2017)
Positions count from the first letter of the chain named. Numbers in names are those of the source.

B1: Mycobacterium tuberculosis isocitrate lyase (MtbICL) (enzyme)
chain: MSVVGTPKSAEQIQQEWDTNPRWKDVTRTYSAEDVVALQGSVVEEHTLARRGAEVLWEQLHDLEWVNALGALTGNMAVQQVRAGLKAIYLSGWQVAGDANLSGHTYPDQSLYPANSVPQVVRRINNALQRADQIAKIEGDTSVENWLAPIVADGEAGFGGALNVYELQKALIAAGVAGSHWEDQLASEKKCGHLGGKVLIPTQQHIRTLTSARLAADVADVPTVVIARTDAEAATLITSDVDERDQPFITGERTREGFYRTKNGIEPCIARAKAYAPFADLIWMETGTPDLEAARQFSEAVKAEYPDQMLAYNCSPSFNWKKHLDDATIAKFQKELAAMGFKFQFITLAGFHALNYSMFDLAYGYAQNQMSAYVELQEREFAAEERGYTATKHQREVGAGYFDRIATTVDPNSSTTALTGSTEEGQFH
notes: Isocitrate lyase of Mycobacterium tuberculosis, full-length, 428 amino acids per monomer; also called native MtbICL; native protein
B2: MtbICL F345A mutant (MtbICL_(F345A)) (enzyme)
chain: B1 chain with F345A
notes: A small fraction formed aggregate on SEC; also called mutant protein

Biological target: the molecule itself
Assay: SEC; Superdex 200 10/300 GL on AKTA-FPLC, 50 mM phosphate buffer pH 8.0, 100 mM NaCl, 0.5 mL/min, 25 °C; mass read against standard markers (ferritin, catalase, aldolase, ovalbumin)

Protein | stoichiometry N
B1 | 4
B2 | 4
